Experimental data from the DeepSol protein solubility set.

Assay: soluble on expression in E. coli; label from the status in PepcDB or PDB records

Soluble on expression in E. coli, soluble:
SSRIGEIKEETTSHLRSCEYKGRPPKAGAEPASEREVS, MDAFKRNLEKLAELAIRVGLNLEKGQEVIATAPIEAVDFVRLLAEKAYREGASLFTVIYGDQELARKRLALAPEEGLDKAPAWLYEGMARAFREGAARLAVSGSDPKALEGLPPEKVGRAQKANARAYKPALEAITEFVTNWTIVPFAHPGWARAVFPGLPEEEAVRRLWEAIFQATRADQEDPIAAWEAHNRALHEKVAYLNARRFHALHFKGPGTDLVVGLAEGHLWQGGATATKGGRLCNPNLPTEEVFTAPHRERVEGVVRASRPLALGGTLVEGIFARFERGFAVEVRAEKGEEVLRRLLDTDEGARRLGEVALVPADNPIAKTGLVFFDTLFDENAASHIAFGQAYQENLEGRPSGEAFRKRGGNESLVHVDWMIGSEEMDVDGLYEDGTRTPLMRRGRWVV, MYNISFTPDRPLTYHLEDDQSLARLSLVPGRGGLVTEWTVQGQPILYFDRERFQDPSLSVRGGIPILFPICGNLPQDQFNHAGKSYRLKQHGFARDLPWEVIGQQTQDNARLDLRLSHNDATLEAFPFAFELVFSYQLQGHSLRIEQRIANLGDQRMPFSLGFHPYFFCREKLGITLAIPANDYLDQKTGDCHGYDGQLNLTSPELDLAFTQISQPRAHFIDPDRNLKIEVSFSELYQTLVLWTVAGKDYLCLEPWSGPRNALNSGEQLAWVEPYSSRSAWVNFQVSTELEHHHHHH, MSSYQQKQTFTPPPQLQQQQVKQPSQPPPQEIFVPTTKEPCHSKVPQPGNTKIPEPGCTKVPEPGCTKVPEPGCTKVPEPGCTKVPEPGCTKVPEPGYTKVPEPGSIKVPDQGFIKFPEPGAIKVPEQGYTKVPVPGYTKVPEPCPSTVTPGPAQQKTKQK, MISIHFEKAHDCHQLFQQLQGYLTKYAELGLKGGIEAGGDETLYVNYENQYVNFYDSFQPLLASIFTDYVISTKEEEWLLDIIENMFYFTDEEEKEQIVAIARSILEGDLEDMPSLSMFTNRREYIYQAFSKHIEENMTFYYDPFLTFRLREYGELLIDCVELAIDEYMMEQEYQSMVETLRQFIHSRIPKRGVIYAVYDERFHFYDEHFRLISTDEIVYDLKEELVFEHGLSVEEMVISPLVSMLPETVKVFTNDEEHGVILTLQAIFQERLKVFPLKDSPHQHREELEHHHHHH, RWETHVYRAVKDLLVGLGFTEVLQLVLTSPRLVEAAGFSSMAVEVLNPVQQEYSVLRPTLLITLLQTLRENQHRRKPVKVFEAGNAVYLEDGEPRDEEKLALGVLDEEAGFEDVQAPLYAVLRIMGVDFEVEEASHPMFMEGRTAAVKVGGERLGYIGEVKPEVLEAFGLEYPVAAAEISLEVLARWTS, MALEKLLKVQERLWAPEDLRKKANLQDYAAEYRKSLEDPEGFWGAWARRFHWEKPFEKVLEWTLPEHRWFLGGTTNAVYNALERNVERGLRNKVALLYLAEDGREEKLTYGELLDRVRRLATGLRRLGVGKGDRVVIYMPLTLEGVLAMLATAYIGAIHSVVYAGLGVSALRERILDAQAKLLIAGDVSFRRGKGVDLRSIAEEAIRDLPLKVVWFQRAYKAELAEGHYDFHELLWGNPPEARAEMVDAEHPLFILYTSGSTGKPKGVVHVHGGYMVGTTYHLRTFFDVKDEDVFWATSDIGWIVGHSYIVYAPLLEGITSVLREGAPDHPDPGALWQAVERYRVNVMFTAPTAVRMFMKYGPEWPRKYDLSSLRLLAVAGEPLNPEALKWAYEHLVDGGRRGFVADNWWQTELGGPTLGTPLVLPAKPGFAGVALPGVEAEVVDEEGRPVPPGQGGLLVLKRPFPHMMRTVWGNHERYLRYWQEVPGGVYASGDVASKDEEGYFSVLGRADDVLNVAGHRIGTADVESALVSHPAVAEAAVIGVPDPLKGEAIKAFVVLRLGQTPSEELKEALVQHVRRELGPIATPSEVVFLDKLPKTRSGKILRRLLKAQALGKDPGDLSTLEE, MAKERALTLEALRVMDAIDRRGSFAAAADELGRVPSALSYTMQKLEEELDVVLFDRSGHRTKFTNVGRMLLERGRVLLEAADKLTTDAEALARGWETHLTIVTEALVPTPAFFPLIDKLAAKANTQLAIITEVLAGAWERLEQGRADIVIAPDMHFRSSSEINSRKLYTLMNVYVAAPDHPIHQEPEPLSEVTRVKYRGIAVADTARERPVLTVQLLDKQPRLTVSTIEDKRQALLAGLGVATMPYPMVEKDIAEGRLRVVSPESTSEIDIIMAWRRDSMGEAKSWCLREIPKLFNGK, MSLTAAVRHSDVLVVGAGSAGSVVAERLSMDSSCVVTVLEAGPGLADPGLLAQTANGLQLPIGAGSPLVERYRTRLTDRPVRHLPIVRGATVGGSGAINGGYFCRGLPSDFDRASIPGWAWSDVLEHFRAIETDLDFETPVHGRSGPIPVRRTHEMTGITESFMAAAEDAGFAWIADLNDVGPEMPSGVGAVPLNIVNGVRTSSAVGYLMPALGRPNLTLLARTRAVRLRFSATTAVGVDAIGPGGPVSLSADRIVLCAGAIQSAHLLMLSGVGEEEVLRSAGVKVLMALPVGMGCSDHPEWVMPTNWAVAVDRPVLEVLLSTHDGIEIRPYTGGFVAMTGDGTAGHRDWPHIGVALMQPRARGRITLVSSDPQIPVRIEHRYDSEPADVAALRQGSALAHELCGAATRIGPAVWATSQHLCGSAPMGTDDDPRAVVDPRCRVRGIENLWVIDGSVLPSITSRGPHATIVMLGHRAAEFVQEGHHHHHH, MSLKVAKDLVVSLAYQVRTEDGVLVDESPVSAPLDYLHGHGSLISGLETALEGHEVGDKFDVAVGANDAYGQYDENLVQRVPKDVFMGVDELQVGMRFLAETDQGPVPVEITAVEDDHVVVDGNHMLAGQNLKFNVEVVAIREATEEELAHGHVHGAHDHHHDHDHDGCCGGHGHDHGHEHGGEGCCGGKGNGGCGCEGGSHHHHHH, GSHMLEFSEWYSDILEKAEIYDVRYPIKGCGVYLPYGFKIRRYTFEIIRNLLDESGHDEALFPMLIPEDLLAKEAEHIKGFEDEVYWVTHGGKTQLDVKLALRPTSETPIYYMMKLWVKVHTDLPIKIYQIVNTFRYETKHTRPLIRLREIMTFKEAHTAHSTKEEAENQVKEAISIYKKFFDTLGIPYLISKRPEWDKFPGAEYTMAFDTIFPDGRTMQIATVHNLGQNFSKTFEIIFETPTGDKDYAYQTCYGISDRVIASIIAIHGDEKGLILPPIVAPIQVVIVPLIFKGKEDIVMEKAKEIYEKLKGKFRVHIDDRDIRPGRKFNDWEIKGVPLRIEVGPKDIENKKITLFRRDTMEKFQVDETQLMEVVEKTLNNIMENIKNRAWEKFENFITILEDINPDEIKNILSEKRGVILVPFKEEIYNEELEEKVEATILGETEYKGNKYIAIAKTY, GPGSMTKAASLKKGSGDKRAREASLQEATARKVKVETAAMLPKASHDSQAHPNLFSWLLNTSRGEFFRKYFERKHLVASHGSGEYFASGLPGVVPPVNWSTERMLEHVKTHPSRYGADLDIVKFDPKLKRRVSYRTKGLVDAAELEACMKDGWSVRFLRPNEFIESNSAFIGCIEKEFNCYCGANSYWTPANSQGFAPHYDDVDVFFLQLEGEKLWCLYDPPEDVDVLARHSSEDYAPERFPTPKHTITLKAGDVLYMPRGTVHQGKTTLKTHSLHITFSANQMNSWADFMSRAAQYTVETLAANKLEWRRALPRDMPQVMGEVNNPVFRDTHGLPALSANQQDHRANLQTKVREMVAELTLLLTDEVNMDVCADVYGKDTIQKLQPPSRTYSGAAPASRKLSHASRVRLISRNCMRLLLNVPGEARVYHIGQNSTVCLAGELGELRFEADFAPAIATLLSSYPKTMPVSALPFPGFDNSDDVAENQLLLVETLRDAGLLHVGSSAKGNAPS

Soluble on expression in E. coli, not soluble:
MKDLGAEHLAGHEGVQLLGLLNVYLEQEERFQPREKGLSLIEATPENDNTLCPGLRNAKVEDLRSLANFFGSCTETFVLAVNILDRFLALMKVKPKHLSCIGVCSFLLAARIVEEDCNIPSTHDVIRISQCKCTASDIKRMEKIISEKLHYELEATTALNFLHLYHTIILCHTSERKEILSLDKLEAQLKACNCRLIFSKAKPSVLALCLLNLEVETLKSVELLEILLLVKKHSKINDTEFFYWRELVSKCLAEYSSPECCKPDLKKLVWIVSRRTAQNLHNSYYSVPELPTIPEGGCFDESESEDSCEDMSCGEESLSSSPPSDQECTFFFNFKVAQTLCFPSLEHHHHHH, MASDMPLVQLPQRGERINVPLVQSRSEDQRLVTSARQTDKIDADDLVALANQLNSARQLVKGRACDRLKQIADQMEQLHMAARAVLEDAQRDEHLHNVPCNMEKQPGRIYHLYQKQGSMNKYFSMLAPNEWGYQEKKEEYLGSYRLEYDRSWTPVGEMDRKDEEVARLQQLLQREGPVALRGNPNF, MGSDKIHHHHHHSRSTQGVRSLGFYNRHTGERGQGSYWIDGDYQTNTLNDFNHLLRDHRQNETAPMDKRLFDLLFSLKQTLQVDEDFHVISGYRSPKTNQMLANRSSAVAKKSYHMKGMAMDIALPDVNLKDLRDAAISLKLGGVGYYPSSGFVHVDTGPIRTW, MYRVLLSGAAGSGKGTIARMLVREFEPLGFNYFAAGDFIRDHIARGTEFGVRAQSFLNKGEHVPDSILNGAILAEMLKAGPRVVLDGYPRNMSQLKMVEEQAPLNLIVELKVPRKVLIDRLSKQLVHPASGRAYNLEVNPPKEEGKDDITGEPLFKRSTDQLEVARRRLEVYDKTENKVLDYYKKQNKCITMSGESSKAVFESVAEVMRRDLLTTTPRTAYA, MAHHHHHHMSPVLVPTACEDWSLNIDDESAKRFWWNNTYSITLWEETLNIEQQAEKITDGDVWSKFIDLQLRCAFKICSICHSPEGNADMKICCYCGNTVHENCSEPAAPEQIMWKPANLAYVEHMRACFQCQAVNYKEPL, MSLIIPEKFQHIHRVMNTNIDGNRKVPYALTAIKGVGRRFAFVCCRKADVDVNKRAGELTEEDFDKIVTIMQNPSQYKIPNWFLNRQKDIKDGKTGQLLSTAVDNKLREDLERMKKIRLHRGLRHYWGLRVRGQHTKTTGRKGRTVGVSKKKGG, MGSDKIHHHHHHMNDYIIEMLNITKEFPGIIANDNITLRLKKGEIHALLGENGAGKSTLMSVLFGLYQPEKGEIRKNGNTVKINNPNDANALGIGMVHQHFKLVEIFTVLENIILGVEPHALGFLQKKKAREKVVELSKQYGLEVNPDALIEKISVGMQQRVEILKMLYRDNEILIFDEPTAVLTPQEIDELMEIMRRFAKEGKSILFITHKLNEIMAVADRCTVLRKGQYVGTVDIKDTTKEELSRMMVGRDVSFRVQKETMTPGRVVLSVRNVSVPSKTSKKNAVSNVSFDVRAGEIVCLAGIDGNGQTEFVSALTGLERHTSGTITLCDQDISKASVRTRSQAGMSHIPEDRHKYGLVLDYTLEDNLVIQRYWQPQFQRFGFIRRKAVRSYAEGLIKQYDVRSGQGPLTIARSMSGGNQQKTIIGREIDKDHELLVAVQPTRGLDVGAIEYIHKQLVARRNAGKAVLLVSLELDEVMNVSDRILVMYEGEIVGELDPKTTTVQELGLYMSGAKRNLKEGSHAG, MRRAFLVNSDKCIGCRGCAMACKSFNQLEPDRFWRYVYPLDKDIYPHEERAFYSLACNHCEHPACVAACPVEAYTKREDGVVVHNPERCIGCKNCIRNCPYGAPRFNEETRKAEKCSMCYERLDIGMNPACVNACPVGALSIIDLDADPVPDNAVQYPPGFPHMPQLNPGTRFILARQPKQPEDK, MEKKLVPQSISKERLQKLEAQATLTPQQEEAKARKIEREKARLKELNIPTESKESKDCSPAGMINPYALTEVILERPLDWSNPRTTDIVERVLGSSMQDLSKGDSVLRAGRDQNAEVKIVDSVLTKTQRGQDGLERILESFNDYDMPPEEKEEAAPKAKKAAQKLDIDDLREQALSSTTITKEISKIILPTKNLRDDNNTVHQYREVGFQSNGAHNLWDTVVQGIAGDC
